Experimental data: the Human Domainome abundance scans (Beltran et al. 2025)
± gives the uncertainty stated by the source.

B1: Poly(rC)-binding protein 1, residues 278 to 350; numbered along this chain, Q15365 (parent)
chain: TQTTHELTIPNNLIGCIIGRQGANINEIRQMSGAQIKIANPVEGSSGRQVTITGSAASISLAQYLINARLSSE

Variants of: B1
Assay: abundance fitness (aPCA) (normalised: wild type 0, dead -1); higher = more abundant; growth selection in yeast, the domain comes from the species named
Conditions: Homo sapiens

| Variant | abundance fitness |
| --- | --- |
| R48L | -0.328 ± 0.046 |
| R48M | -0.217 ± 0.054 |
| R48P | -0.714 ± 0.11 |
| R48K | -0.451 ± 0.066 |
| R48T | -0.158 ± 0.049 |
| R48V | -0.093 ± 0.034 |
| R48N | -0.368 ± 0.1 |
| R48Q | -0.257 ± 0.058 |
| R48Y | 0.045 ± 0.064 |
| R48W | -0.184 ± 0.044 |
| A57I | -0.127 ± 0.14 |
| A57K | 0.116 ± 0.051 |
| A57H | 0.051 ± 0.11 |
| A57L | -0.327 ± 0.055 |
| A57R | 0.059 ± 0.035 |
| A57W | -0.247 ± 0.055 |
| A57Y | -0.194 ± 0.12 |
| A57C | -0.035 ± 0.077 |
| A57T | -0.125 ± 0.056 |
| A57M | -0.204 ± 0.069 |
| A57Q | 0.068 ± 0.065 |
| A57F | -0.096 ± 0.12 |
| A57D | 0.074 ± 0.071 |
| A57S | 0.016 ± 0.042 |

| Variant | abundance fitness |
| --- | --- |
| A57V | -0.243 ± 0.046 |
| A57P | -0.02 ± 0.053 |
| A57N | 0.061 ± 0.086 |
| A57G | -0.126 ± 0.037 |
| A57E | 0.088 ± 0.05 |
| V50H | -0.596 ± 0.35 |
| V50R | -0.818 ± 0.11 |
| V50D | -0.796 ± 0.25 |
| V50N | -0.819 ± 0.25 |
| V50I | 0.047 ± 0.088 |
| V50K | -0.7 ± 0.14 |
| V50A | -0.639 ± 0.089 |
| V50S | -0.882 ± 0.16 |
| V50C | -0.147 ± 0.093 |
| V50Y | -0.57 ± 0.46 |
| V50G | -0.865 ± 0.089 |
| V50T | -0.901 ± 0.17 |
| V50L | -0.069 ± 0.035 |
| V50W | -0.989 ± 0.2 |
| V50M | -0.202 ± 0.056 |
| V50E | -0.714 ± 0.12 |
| V50F | -0.602 ± 0.19 |
| T53A | -0.126 ± 0.036 |
| T53R | -0.007 ± 0.031 |

| Variant | abundance fitness |
| --- | --- |
| T53G | -0.308 ± 0.036 |
| T53F | -0.321 ± 0.12 |
| T53I | -0.125 ± 0.12 |
| T53S | -0.041 ± 0.042 |
| T53H | -0.491 ± 0.15 |
| T53Y | -0.129 ± 0.13 |
| T53K | 0.075 ± 0.049 |
| T53C | -0.137 ± 0.071 |
| T53N | -0.385 ± 0.16 |
| T53P | -0.777 ± 0.12 |
| T53W | -0.274 ± 0.049 |
| T53Q | -0.075 ± 0.053 |
| T53D | -0.51 ± 0.11 |
| T53V | -0.118 ± 0.039 |
| T53M | -0.063 ± 0.056 |
| Q49L | 0.03 ± 0.041 |
| Q49W | -0.613 ± 0.071 |
| Q49D | -0.263 ± 0.069 |
| Q49S | 0.008 ± 0.04 |
| Q49A | 0.006 ± 0.043 |
| Q49Y | -0.543 ± 0.12 |
| Q49E | -0.204 ± 0.064 |
| Q49H | -0.073 ± 0.069 |
| Q49P | -0.298 ± 0.064 |

| Variant | abundance fitness |
| --- | --- |
| Q49K | -0.049 ± 0.063 |
| Q49R | 0.049 ± 0.029 |
| Q49I | -0.033 ± 0.063 |
| Q49C | 0.006 ± 0.051 |
| Q49F | -0.533 ± 0.16 |
| Q49N | -0.054 ± 0.058 |
| Q49V | 0.043 ± 0.034 |
| Q49M | -0.081 ± 0.045 |
| A56H | -0.027 ± 0.089 |
| A56I | -0.024 ± 0.11 |
| A56T | 0.026 ± 0.066 |
| A56C | -0.102 ± 0.07 |
| A56N | -0.078 ± 0.078 |
| A56Y | -0.245 ± 0.091 |
| A56K | 0.029 ± 0.055 |
| A56E | -0.044 ± 0.047 |
| A56Q | 0.076 ± 0.062 |
| A56W | -0.269 ± 0.052 |
| A56L | 0.026 ± 0.051 |
| A56V | -0.072 ± 0.047 |
| A56D | -0.029 ± 0.06 |
| A56R | -0.039 ± 0.035 |
| A56F | 0.032 ± 0.11 |
| A56G | -0.077 ± 0.034 |

| Variant | abundance fitness |
| --- | --- |
| A56M | 0.081 ± 0.062 |
| S58C | -0.241 ± 0.076 |
| S58D | 0.009 ± 0.068 |
| T51W | -0.063 ± 0.058 |
| T51L | -0.034 ± 0.037 |
| T51V | -0.027 ± 0.033 |
| T51H | -0.287 ± 0.17 |
| T51C | 0.024 ± 0.085 |
| T51Q | -0.088 ± 0.048 |
| T51R | -0.054 ± 0.043 |
| T51Y | -0.07 ± 0.099 |
| T51I | -0.107 ± 0.11 |
| T51F | -0.071 ± 0.12 |
| T51K | 0.005 ± 0.052 |
| T51N | -0.427 ± 0.23 |
| T51D | -0.542 ± 0.22 |
| T51P | -0.682 ± 0.11 |
| T51G | -0.574 ± 0.065 |
| T51M | -0.066 ± 0.043 |
| T51S | -0.02 ± 0.042 |
| T51E | -0.097 ± 0.038 |
| S55I | -0.882 ± 0.31 |
| S55D | -0.13 ± 0.068 |
| S55G | -0.21 ± 0.034 |

| Variant | abundance fitness |
| --- | --- |
| S55E | -0.086 ± 0.034 |
| S55W | -0.575 ± 0.065 |
| S55F | -0.551 ± 0.33 |
| S55K | -0.25 ± 0.046 |
| S55A | -0.239 ± 0.042 |
| S55Q | -0.336 ± 0.051 |
| S55N | -0.017 ± 0.07 |
| S55T | 0.001 ± 0.047 |
| S55C | -0.252 ± 0.069 |
| S55L | -0.786 ± 0.1 |
| S55H | -0.047 ± 0.085 |
| S55M | -0.536 ± 0.1 |
| S55Y | -0.119 ± 0.17 |
| S55P | -0.102 ± 0.049 |
| S55V | -0.396 ± 0.056 |
| G54D | -0.834 ± 0.19 |
| G54Y | -1.08 ± 0.46 |
| G54H | -0.465 ± 0.21 |
| G54M | -1.02 ± 0.26 |
| G54A | -0.916 ± 0.083 |
| G54C | -0.85 ± 0.18 |
| G54K | -0.804 ± 0.18 |
| G54S | -0.881 ± 0.11 |
| G54F | -0.507 ± 0.25 |

| Variant | abundance fitness |
| --- | --- |
| G54W | -0.912 ± 0.14 |
| G54E | -0.838 ± 0.13 |
| G54L | -0.877 ± 0.12 |
| G54P | -0.805 ± 0.12 |
| G54T | -0.854 ± 0.12 |
| G54Q | -1.11 ± 0.29 |
| I52T | -0.739 ± 0.15 |
| I52W | -1.02 ± 0.16 |
| I52L | -0.039 ± 0.037 |
| I52V | -0.218 ± 0.037 |
| I52P | -0.698 ± 0.15 |
| I52Y | -1.09 ± 0.39 |
| I52S | -0.574 ± 0.09 |
| I52C | -1.03 ± 0.27 |
| I52D | -0.583 ± 0.25 |
| I52M | -0.225 ± 0.053 |
| I52N | -0.878 ± 0.47 |
| I52H | -0.927 ± 0.29 |
| I52E | -0.732 ± 0.097 |
| I52F | -0.694 ± 0.26 |
| I52G | -1.05 ± 0.1 |
| I52R | -0.996 ± 0.1 |
| I52K | -0.631 ± 0.098 |
